“And” between values parts separate entries of the source, which are not always exact repeats. Identical values can stand only once.

The target in test [1] is trypsin-digested S protein (extracellular domain of the SARS-CoV-2 S protein cleaved at S1/S2) (SARS-CoV-2). The experiment in a line: cryo-EM structure.
The target of test [2] is trimeric extracellular domain of the S protein of SARS-CoV-2 (SARS-CoV-2) (UniProt P0DTC2). The experiment in a line: cryo-EM structure; S protein incubated with PD of ACE2; three conformations.

Regarding “peptidase domain (PD) of ACE2 (domain or fragment)”, in test [1], the percent of particles in conformation 1 (one PD bound) came to 9.5%; the percent of particles in conformation 2 (two PD bound) was 84.5%; the percent of particles in conformation 3 (two PD bound) came to 6%; the stoichiometry N (PD per S(p) trimer) is 1 and 2. In test [2], this substance displayed a percent of particles in conformation 2 (one PD bound) of 24.4% and a percent of particles in conformation 3 (one PD bound) of 67.7%.

Source of the values: article PMC7972335.
